Measured values: patent US20120014950A1 (Xencor, published 2012)

T1: human DR3 receptor expressed on the cell surface (human, UniProt Q93038 25-417)
T1 construct: also called hDR3; TNFRSF25
T1 sequence: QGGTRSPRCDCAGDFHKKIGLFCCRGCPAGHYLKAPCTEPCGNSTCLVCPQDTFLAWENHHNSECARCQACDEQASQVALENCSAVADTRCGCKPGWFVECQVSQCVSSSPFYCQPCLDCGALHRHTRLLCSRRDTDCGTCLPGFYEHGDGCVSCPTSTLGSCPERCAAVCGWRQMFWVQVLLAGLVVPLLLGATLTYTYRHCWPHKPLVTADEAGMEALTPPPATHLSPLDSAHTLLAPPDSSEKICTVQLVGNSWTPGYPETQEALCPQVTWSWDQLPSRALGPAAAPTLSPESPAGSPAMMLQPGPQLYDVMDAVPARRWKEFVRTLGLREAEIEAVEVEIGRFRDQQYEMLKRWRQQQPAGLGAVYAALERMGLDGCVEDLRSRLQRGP

T2: human DR3-Fc fusion protein (human, UniProt Q93038 25-199)
T2 construct: also called hDR3-Fc; not shown: Fc portion
T2 sequence: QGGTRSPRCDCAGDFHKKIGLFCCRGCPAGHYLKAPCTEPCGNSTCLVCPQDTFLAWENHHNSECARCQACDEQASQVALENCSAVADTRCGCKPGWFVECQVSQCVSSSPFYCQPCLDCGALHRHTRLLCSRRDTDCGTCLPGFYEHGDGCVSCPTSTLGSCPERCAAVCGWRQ


Key:
[1] = molecular target: T1, human DR3 receptor expressed on the …; assay: Flow cytometry on HEK293F cells transiently expressing human DR3. 1 ug/mL human TL1A, detected with anti-TL1A-biotin polyclonal antibody and streptavidin-PE. No competitor.
Description: FIG. 4. Flow cytometry results of 11H08 binding to hDR3-expressing HEK293F cells. HEK293F cells transiently expressing human DR3 were used to test the ability of the whole 11H08 immunoglobulin molecule to inhibit human TL1A binding to DR3 (See, Example 2). HEK293F cells were incubated with 1 μg/mL of human TL1A in the presence of either an unrelated antibody (mIgG1) as an isotype control (known not to bind TL1A or DR3) or 11H08. […] The upper panels show binding of labeled TL1A either by itself or in the presence of an unrelated antibody (mIgG1).
The anti-DR3 monoclonal antibody 11H08 was assayed for its ability to inhibit human TL1A binding to human DR3 using techniques known to those skilled in the art. Briefly, HEK293F cells transiently expressing human DR3 were incubated with 1 μg/mL of human TL1A in the presence of either an unrelated antibody (mIgG1) as an isotype control that was known not to bind TL1A or DR3, or an anti-DR3 monoclonal antibody (11H08), for 20 minutes at room temperature. Binding was detected using an anti-TL1A-biotin polyclonal antibody followed by Streptavidin PE. The ability of the anti-DR3 monoclonal antibody to inhibit binding of TL1A to DR3 was measured by flow cytometry.

[2] = molecular target: T2, human DR3-Fc fusion protein; assay: BIAcore SPR; human DR3-Fc amine-coupled to CM5 chip, Fab-HSA in flow; 1:1 model; average of n=2
Description: (§1) Briefly, target proteins are covalently immoblilzed to the BIAcore CM5 sensor chip (Cat #BR-1000-14 (Biacore Life Sciences, Piscataway, N.J.)) via amine groups using N-ethyl-N′-(dimethylaminopropyl) carbodilimide/N-hydroxysuccinimide chemistry. Empty flow cells can be used as controls negative for target binding and for background subtraction. Six different concentrations of antibody molecules (range 0 to 50 nM) are flowed over the polypeptide-derivatized flow cells at 15 μL1/min for a total volume of 50 μl. The amount of bound protein is determined during washing of the flow cell with HBS buffer (10 mM HEPES [pH 7.4], 150 mM NaCl, 3.4 mM EDTA, and 0.005% Surfactant P20). The flow cell surface is regenerated by displacing bound protein by washing with 20 μl of 10 mM glycine-HCL (pH 2.3). For kinetic analysis, the on and off rates are determined using the kinetic evaluation program in BIAevaluation 3 software using a 1:1 binding model and the global analysis method.
(§2) Additionally, H1L2-Fab and H5L2-Fab were fused to human serum albumin (See, Example 6) and similarly tested. The Kd values of H0L0-Fab-HSA, H1L2-Fab-HSA, and H5L2-Fab-HSA were determined by BIAcore analysis as described above.

[3] = molecular target: T2, human DR3-Fc fusion protein; assay: BIAcore SPR; human DR3-Fc amine-coupled to CM5 chip, Fab-HSA in flow; ratio of average Kd
Description: as §1, §2

[4] = molecular target: T2, human DR3-Fc fusion protein; assay: BIAcore SPR; human DR3-Fc amine-coupled to CM5 chip, Fab in flow; ratio of average Kd
Description: as §1
(§3) In order to confirm that the humanized variant antibodies were capable of binding to the extracellular domain of DR3, the Kd values of eight humanized Fab variants were determined by BIAcore assay. In this experiment, a human DR3-Fc fusion protein was covalently immoblilzed to the BIAcore CM5 sensor chip. Empty flow cells that were negative for anti-DR3-Fab binding were used for background subtraction.

[5] = molecular target: T2, human DR3-Fc fusion protein; assay: BIAcore SPR; human DR3-Fc amine-coupled to CM5 chip, Fab in flow; 1:1 model; average of n=2
Description: as §1, §3

Binder	binding result [1]	Kd [2]	Ratio of binding relative to H0L0-Fab [3]	Ratio of binding relative to H0L0-Fab [4]	Kd [5]
H1L2-Fab-HSA (Fab, also called AB13350-C1) heavy: not shown light: DIVLTQSPSSLSASVGDRVTITCRASESVDSYGNSFIHWYQQKPGQPPKLLIYRASNLESGIPARFSGSGSRTDFTLTISSLQPEDFATYYCQQSYEDPWTFGGGTKLEIKRTVAAPSVFIFPPSDEQLKSGTASVVCLLNNFYPREAKVQWKVDNALQSGNSQESVTEQDSKDSTYSLSSTLTLSKADYEKHKVYACEVTHQGLSSPVTKSFNRGEC		3.06 nM	0.6		
H1.1L4-Fab (Fab, V domains shown) VH: EVQLVESGGGLVKPGGSLRLSCAASGFTFTNYAMSWVRQAPGQRLEWVSTITSGGSYIYYLDSVKGRFTISRDNAKSTLYLQMNSLRAEDTAVYYCARRKDGNYYYAMDYWGQGTTVTVSS VL: DIVLTQTPLSLSVTPGQPASISCRASESVDSYGNSFIHWYQQKPGQPPKLLIYRASNLESGIPARFSGSGSRTDFTLKISRVEAEDVGVYYCQQSYEDPWTFGGGTKLEIKR				0.94	1.29 nM
H1.1L1-Fab (Fab, V domains shown) VH: EVQLVESGGGLVKPGGSLRLSCAASGFTFTNYAMSWVRQAPGQRLEWVSTITSGGSYIYYLDSVKGRFTISRDNAKSTLYLQMNSLRAEDTAVYYCARRKDGNYYYAMDYWGQGTTVTVSS VL: DIVLTQSPATLSLSPGERATLSCRASESVDSYGNSFIHWYQQKPGQPPKLLIYRASNLESGIPARFSGSGSRTDFTLTISSLEPEDFAVYYCQQSYEDPWTFGGGTKLEIKR				1.06	1.46 nM
H1.1L2-Fab (Fab, V domains shown) VH: EVQLVESGGGLVKPGGSLRLSCAASGFTFTNYAMSWVRQAPGQRLEWVSTITSGGSYIYYLDSVKGRFTISRDNAKSTLYLQMNSLRAEDTAVYYCARRKDGNYYYAMDYWGQGTTVTVSS VL: DIVLTQSPSSLSASVGDRVTITCRASESVDSYGNSFIHWYQQKPGQPPKLLIYRASNLESGIPARFSGSGSRTDFTLTISSLQPEDFATYYCQQSYEDPWTFGGGTKLEIKR				0.85	1.17 nM
H0L0-Fab (Fab, V domains shown, also called 11H08-Fab; parental anti-DR3 molecule) VH: EVMLVESGGGLVKPGGSLKLSCAASGFTFTNYAMSWVRQTPEKRLEWVATITSGGSYIYYLDSVKGRFTISRDNAKSTLYLQMSSLRSEDTAIYNCARRKDGNYYYAMDYWGQGTSVTVSS VL: DIVLTQSPASLAVSLGQRATISCRASESVDSYGNSFIHWYQQKAGQPPKLLIYRASNLESGIPARFSGSGSRTDFTLTINPVEADDVATYYCQQSYEDPWTFGGGTKLEIKR				1	1.37 nM
H4.2L2-Fab (Fab, V domains shown) VH: QVQLVQSGSELKKPGASVKVSCKASGFTFTNYAMSWVRQAPGKRLEWVATITSGGSYIYYLDSVKGRFTISRENAKSTLYLQMNSLRTEDTALYYCARRKDGNYYYAMDYWGQGTTVTVSS VL: DIVLTQSPSSLSASVGDRVTITCRASESVDSYGNSFIHWYQQKPGQPPKLLIYRASNLESGIPARFSGSGSRTDFTLTISSLQPEDFATYYCQQSYEDPWTFGGGTKLEIKR				1.46	2.01 nM

Now from value to binder:

binding result [1]	Kd [2]	Ratio of binding relative to H0L0-Fab [3]	Ratio of binding relative to H0L0-Fab [4]	Kd [5]	Binder
binds					human TL1A (ligand, UniProt O95150 72-251, looked up, also called hTL1A; TNFSF15) LKGQEFAPSHQQVYAPLRADGDKPRAHLTVVRQTPTQHFKNQFPALHWEHELGLAFTKNRMNYTNKFLLIPESGDYFIYSQVTFRGMTSECSEIRQAGRPNKPDSITVVITKVTDSYPEPTQLLMGTKSVCEVGSNWFQPIYLGAMFSLQEGDKLMVNVSDISLVDYTKEDKTFFGAFLL
	7.52 nM	1.4			H5L2-Fab-HSA (Fab, also called AB13351-C1) heavy: not shown light: DIVLTQSPSSLSASVGDRVTITCRASESVDSYGNSFIHWYQQKPGQPPKLLIYRASNLESGIPARFSGSGSRTDFTLTISSLQPEDFATYYCQQSYEDPWTFGGGTKLEIKRTVAAPSVFIFPPSDEQLKSGTASVVCLLNNFYPREAKVQWKVDNALQSGNSQESVTEQDSKDSTYSLSSTLTLSKADYEKHKVYACEVTHQGLSSPVTKSFNRGEC
			1.28	1.76 nM	H5.3L4-Fab (Fab, V domains shown) VH: EVMLLQSGAEVKKPGASVKVSCKASGFTFTNYAMSWVRQAPGQRLEWVATITSGGSYIYYLDSVKGRFTISRDNAKSTLHLQMNSLRAEDTAVYYCARRKDGNYYYAMDYWGQGTTVTVSS VL: DIVLTQTPLSLSVTPGQPASISCRASESVDSYGNSFIHWYQQKPGQPPKLLIYRASNLESGIPARFSGSGSRTDFTLKISRVEAEDVGVYYCQQSYEDPWTFGGGTKLEIKR
			1.09	1.5 nM	H0.1L0-Fab (Fab, V domains shown) VH: EVMLVESGGGLVKPGGSLKLSCAASGFTFTNYAMSWVRQTPEKRLEWVATITSGGSYIYYLDSVKGRFTISRDNAKSTLYLQMSSLRSEDTAIYYCARRKDGNYYYAMDYWGQGTSVTVSS VL: DIVLTQSPASLAVSLGQRATISCRASESVDSYGNSFIHWYQQKAGQPPKLLIYRASNLESGIPARFSGSGSRTDFTLTINPVEADDVATYYCQQSYEDPWTFGGGTKLEIKR
			1.22	1.67 nM	H5.3L2-Fab (Fab, V domains shown) VH: EVMLLQSGAEVKKPGASVKVSCKASGFTFTNYAMSWVRQAPGQRLEWVATITSGGSYIYYLDSVKGRFTISRDNAKSTLHLQMNSLRAEDTAVYYCARRKDGNYYYAMDYWGQGTTVTVSS VL: DIVLTQSPSSLSASVGDRVTITCRASESVDSYGNSFIHWYQQKPGQPPKLLIYRASNLESGIPARFSGSGSRTDFTLTISSLQPEDFATYYCQQSYEDPWTFGGGTKLEIKR
